Source: patent US20260263521A1, “ANTI-CD200R1 ANTIBODY AND USE THEREOF” (AIMED BIO INC., priority 2023, published 2026)

T1: CD200R1 on Jurkat-CD200R1 cells (Homo sapiens, UniProt Q8TD46)
T1 construct: host or cells: Jurkat
T1 sequence (Q8TD46 25-348): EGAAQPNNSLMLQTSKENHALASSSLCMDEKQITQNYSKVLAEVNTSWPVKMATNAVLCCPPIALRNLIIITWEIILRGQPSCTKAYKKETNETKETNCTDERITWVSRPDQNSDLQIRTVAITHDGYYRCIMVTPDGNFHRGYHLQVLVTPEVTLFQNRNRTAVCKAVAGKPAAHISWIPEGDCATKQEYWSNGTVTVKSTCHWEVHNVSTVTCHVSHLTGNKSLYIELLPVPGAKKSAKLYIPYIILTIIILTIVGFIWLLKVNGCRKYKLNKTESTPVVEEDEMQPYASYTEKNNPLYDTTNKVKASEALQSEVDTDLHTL

T2: CD200R1 on HH (CRL-2105) cells (Homo sapiens, UniProt Q8TD46)
T2 construct: HH (CRL-2105) cells, which endogenously express CD200R1; host or cells: HH (CRL-2105) cells
T2 sequence (Q8TD46 25-348): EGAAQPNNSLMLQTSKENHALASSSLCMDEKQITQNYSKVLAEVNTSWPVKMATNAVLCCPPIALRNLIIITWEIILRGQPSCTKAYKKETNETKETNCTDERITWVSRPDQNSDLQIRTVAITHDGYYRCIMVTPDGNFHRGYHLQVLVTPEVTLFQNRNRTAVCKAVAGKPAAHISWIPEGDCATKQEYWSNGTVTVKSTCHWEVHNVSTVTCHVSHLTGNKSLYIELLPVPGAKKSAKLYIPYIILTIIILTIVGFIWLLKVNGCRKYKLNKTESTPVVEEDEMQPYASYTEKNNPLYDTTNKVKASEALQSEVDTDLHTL

T3: human CD200R1 (Homo sapiens, UniProt Q8TD46)
T3 sequence (Q8TD46 25-348): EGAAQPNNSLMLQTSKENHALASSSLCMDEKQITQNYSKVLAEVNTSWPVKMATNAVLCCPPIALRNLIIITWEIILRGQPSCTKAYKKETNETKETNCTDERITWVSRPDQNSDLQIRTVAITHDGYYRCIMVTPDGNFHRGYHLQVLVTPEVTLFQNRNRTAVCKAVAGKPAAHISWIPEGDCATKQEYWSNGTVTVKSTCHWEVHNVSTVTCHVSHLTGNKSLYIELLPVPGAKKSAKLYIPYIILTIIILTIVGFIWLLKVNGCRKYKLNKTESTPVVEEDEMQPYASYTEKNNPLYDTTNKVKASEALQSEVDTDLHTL


Tests used:
[1] = molecular target: T1, CD200R1 on Jurkat-CD200R1 cells; test: Cell binding assay (flow cytometry), Jurkat-CD200R1 cells; type: cell-based; conditions: Jurkat-CD200R1 cells; 500 nM; IgG1 form
Description: (§1) The binding ability of the antibodies identified using unique multifaceted antibody discovery technology was identified in HH (CRL-2105) cells, which endogenously express CD200R1, and Jurkat-CD200R1 cells (Source: DiscoverX), which were generated by intranuclear injection of CD200R1 cDNA.
(§2) HH and Jurkat-CD200R1 cells were maintained in RPMI 1640 medium supplemented with 10% heat-inactivated FBS and 1% Penicillin/Streptomycin (P/S). The cells were washed by centrifugation at 130 g for 5 minutes. The cells were seeded onto 96-well round-bottom plates (SPL, #34296) at a density of 1×10^5 cells/well in Flow cytometry staining buffer (Invitrogen, #00-4222-26) or FACS buffer. The cells were treated with all 16 substances and the positive control LY3454738 (US 2020/0087395, I-4P, at Eli Lilly) a concentration of 500 nM in the IgG1 form. After incubation for 1 hour at 4° C., the cells were treated with Alexa-647 Goat anti-human IgG (H+L) cross-adsorbed secondary antibody (Invitrogen, #A21445) and incubated at 4° C. for an additional 30 minutes. […]
(§3) Cell-binding ability was determined in the same manner as in Example 12. For the six active substances primarily selected in Example 12, the isotype was changed to IgG4 or the LALAPG gene was mutated, and binding activity was determined in the two cell lines mentioned above.
(§4) Binding ability was determined in HH, an endogenous T cell line with high CD200R1 expression, and two additional overexpressing cell lines: U937-CD200R overexpressing cells, generated by intranuclear injection of human CD200R1 CDNA into the monocytic cell line U937 (CRL-1593.2) (Source: UMC Utrecht, the Netherlands) and Jurkat-CD200R overexpressing cells, were also cells engineered using a similar method.
(§5) All cell lines were maintained in RPMI 1640 medium supplemented with 10% heat-inactivated FBS and 1% penicillin/streptomycin (P/S) and cell binding was determined in the same manner as in Example 12. […]
(§6) Specific binding ability was determined using P001009 WT and antibody-optimized mutants, P001009v1, P001009v2, P001009v3, and P001009v4. […]

[2] = molecular target: T2, CD200R1 on HH (CRL-2105) cells; test: Cell binding assay (flow cytometry), HH cells; type: cell-based; conditions: HH cells; 500 nM; IgG1 form
Description: as §1, §2, §3, §4, §5, §6

human CD200R1 = molecular target: T3, human CD200R1; test: ELISA binding to human CD200R1; conditions: scFv mutants; antigen binding (ELISA) and cell binding (FACS)
Description: 96-well plates were coated with human CD200R1 (R&D systems, 3414-CD) and mouse CD200R1 protein (R&D systems, 2554-CD) at a concentration of 2 μg/mL at 4° C. for 16 hours and then were blocked with 3% skim milk. The result was treated with the antibodies at concentrations of 300 nM, 60 nM, 12 nM, 2.4 nM, 0.48 nM, 0.096 nM, and 0.0192 nM, and reacted at room temperature for 2 hours.
The result was washed with PBST and distilled water, the samples were bound with a goat-derived HRP-conjugated anti-human antibody (Invitrogen, 31482, Goat anti-Human IgG F(ab′)2 Secondary Antibody, HRP) for 1 hour at room temperature, and then washed again with PBST and distilled water. Color was developed with a TMB substrate solution (Thermo Scientific, 34029, 1-Step™ TMB-ELISA Ultra Substrate Solution). The color reaction was stopped with stop solution (Invitrogen, SS04, ELISA Stop Solution). The absorbance was measured at an optical density of 450 nm.

| Molecule | cell binding ability [1] | cell binding ability [2] | affinity compared with P001018 clone (human CD200R1) |
| --- | --- | --- | --- |
| ch1F1: clone discovered using hybridoma technology (1F1), tested in IgG1 form (antibody, V domains shown) VH: QVQLQQPGAEFVKPGAPVKLSCKASGYTFTSYWMNWVKQRPGRGLEWIGRIDPADSEIHYNQKFKDKATLTVDKSSSTAYIQFSSLTSEDSAVYYCARSGGWLPGFAYWGQGTLVTVSA VL: ENVLTQSPAIMSASPGEKVTMTCSASSSLIYMHWYQQKSSTSPKLWIYDTSKLASGVPGRFSGSGSGNSYSLTINSMEAEDVATYYCFQGSGYPLMYTFGGGTKLEIK | significant binding ability | significant binding ability |  |
| H3-Y102K: P001018 scFv mutant, SEQ ID NO: 164 (protein) scFv: QVQLVQSGAEVKKPGASVKVSCKASGYTFTSYVMHWVRQAPGQGLEWMGYINPYNDDTNYNEKFKGRVTMTRDTSTSTVYMELSSLRSEDTAVYYCAREDYYGSRWGKWGQGTLVTVSSGGGGSGGGGSGGGGSDIVLTQSPASLAVSPGQRATITCRASKSVSTSGYSYMHWYQQKPGQPPKLLIYLASNLESGVPARFSGSGSGTDFTLTINPVEANDTANYYCQHSRELLTFGQGTKVEIK |  |  | enhanced affinity |
| L3-L95D: P001018 scFv mutant, SEQ ID NO: 170 (protein) scFv: QVQLVQSGAEVKKPGASVKVSCKASGYTFTSYVMHWVRQAPGQGLEWMGYINPYNDDTNYNEKFKGRVTMTRDTSTSTVYMELSSLRSEDTAVYYCAREDYYGSRWGYWGQGTLVTVSSGGGGSGGGGSGGGGSDIVLTQSPASLAVSPGQRATITCRASKSVSTSGYSYMHWYQQKPGQPPKLLIYLASNLESGVPARFSGSGSGTDFTLTINPVEANDTANYYCQHSRELDTFGQGTKVEIK |  |  | enhanced affinity |
| H3-Y102T: P001018 scFv mutant, SEQ ID NO: 165 (protein) scFv: QVQLVQSGAEVKKPGASVKVSCKASGYTFTSYVMHWVRQAPGQGLEWMGYINPYNDDTNYNEKFKGRVTMTRDTSTSTVYMELSSLRSEDTAVYYCAREDYYGSRWGTWGQGTLVTVSSGGGGSGGGGSGGGGSDIVLTQSPASLAVSPGQRATITCRASKSVSTSGYSYMHWYQQKPGQPPKLLIYLASNLESGVPARFSGSGSGTDFTLTINPVEANDTANYYCQHSRELLTFGQGTKVEIK |  |  | enhanced affinity |
| L3-L94H: P001018 scFv mutant, SEQ ID NO: 169 (protein) scFv: QVQLVQSGAEVKKPGASVKVSCKASGYTFTSYVMHWVRQAPGQGLEWMGYINPYNDDTNYNEKFKGRVTMTRDTSTSTVYMELSSLRSEDTAVYYCAREDYYGSRWGYWGQGTLVTVSSGGGGSGGGGSGGGGSDIVLTQSPASLAVSPGQRATITCRASKSVSTSGYSYMHWYQQKPGQPPKLLIYLASNLESGVPARFSGSGSGTDFTLTINPVEANDTANYYCQHSREHLTFGQGTKVEIK |  |  | enhanced affinity |
| L3-R92H: P001018 scFv mutant, SEQ ID NO: 166 (protein) scFv: QVQLVQSGAEVKKPGASVKVSCKASGYTFTSYVMHWVRQAPGQGLEWMGYINPYNDDTNYNEKFKGRVTMTRDTSTSTVYMELSSLRSEDTAVYYCAREDYYGSRWGYWGQGTLVTVSSGGGGSGGGGSGGGGSDIVLTQSPASLAVSPGQRATITCRASKSVSTSGYSYMHWYQQKPGQPPKLLIYLASNLESGVPARFSGSGSGTDFTLTINPVEANDTANYYCQHSHELLTFGQGTKVEIK |  |  | enhanced affinity |
| L3-T96R: P001018 scFv mutant, SEQ ID NO: 171 (protein) scFv: QVQLVQSGAEVKKPGASVKVSCKASGYTFTSYVMHWVRQAPGQGLEWMGYINPYNDDTNYNEKFKGRVTMTRDTSTSTVYMELSSLRSEDTAVYYCAREDYYGSRWGYWGQGTLVTVSSGGGGSGGGGSGGGGSDIVLTQSPASLAVSPGQRATITCRASKSVSTSGYSYMHWYQQKPGQPPKLLIYLASNLESGVPARFSGSGSGTDFTLTINPVEANDTANYYCQHSRELLRFGQGTKVEIK |  |  | enhanced affinity |
| L3-L94S: P001018 scFv mutant, SEQ ID NO: 168 (protein) scFv: QVQLVQSGAEVKKPGASVKVSCKASGYTFTSYVMHWVRQAPGQGLEWMGYINPYNDDTNYNEKFKGRVTMTRDTSTSTVYMELSSLRSEDTAVYYCAREDYYGSRWGYWGQGTLVTVSSGGGGSGGGGSGGGGSDIVLTQSPASLAVSPGQRATITCRASKSVSTSGYSYMHWYQQKPGQPPKLLIYLASNLESGVPARFSGSGSGTDFTLTINPVEANDTANYYCQHSRESLTFGQGTKVEIK |  |  | enhanced affinity |
| L3-R92S: P001018 scFv mutant, SEQ ID NO: 167 (protein) scFv: QVQLVQSGAEVKKPGASVKVSCKASGYTFTSYVMHWVRQAPGQGLEWMGYINPYNDDTNYNEKFKGRVTMTRDTSTSTVYMELSSLRSEDTAVYYCAREDYYGSRWGYWGQGTLVTVSSGGGGSGGGGSGGGGSDIVLTQSPASLAVSPGQRATITCRASKSVSTSGYSYMHWYQQKPGQPPKLLIYLASNLESGVPARFSGSGSGTDFTLTINPVEANDTANYYCQHSSELLTFGQGTKVEIK |  |  | enhanced affinity |
